Results on 1 substance are retold here after patent US20090143241A1.

This experiment deals with ClpXP protease (E. coli ClpX6 with ClpP14) (E. coli) (UniProt P0A6H1). In words: cell-based or functional assay.
Sequence of ClpXP protease (E. coli ClpX6 with ClpP14) (E. coli) (P0A6H1 whole entry, chain 1 of 2): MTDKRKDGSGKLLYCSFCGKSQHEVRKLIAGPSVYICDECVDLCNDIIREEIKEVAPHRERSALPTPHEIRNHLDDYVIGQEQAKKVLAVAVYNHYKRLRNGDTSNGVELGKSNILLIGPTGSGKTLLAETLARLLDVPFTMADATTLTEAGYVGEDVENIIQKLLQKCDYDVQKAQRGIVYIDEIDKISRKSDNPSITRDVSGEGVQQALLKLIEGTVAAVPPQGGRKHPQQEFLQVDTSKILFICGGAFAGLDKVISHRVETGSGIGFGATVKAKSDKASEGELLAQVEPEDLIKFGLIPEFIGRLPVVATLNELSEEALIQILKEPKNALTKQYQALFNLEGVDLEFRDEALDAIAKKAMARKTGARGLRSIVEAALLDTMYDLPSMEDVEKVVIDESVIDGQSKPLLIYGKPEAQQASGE
Sequence of ClpXP protease (E. coli ClpX6 with ClpP14) (E. coli) (P0A6G7 15-207, chain 2 of 2, further chain): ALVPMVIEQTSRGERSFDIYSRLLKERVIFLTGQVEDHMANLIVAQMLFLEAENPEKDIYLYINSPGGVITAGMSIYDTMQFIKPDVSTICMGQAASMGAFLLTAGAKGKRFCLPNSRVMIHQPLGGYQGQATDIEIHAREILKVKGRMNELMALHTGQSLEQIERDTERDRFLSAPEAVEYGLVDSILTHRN

“λ O protein, N-terminally His6-tagged (from UniProt P03688 1-333)” came in with a half-life of λ O with ClpXP, no inhibitor of 35 min.
